Assay results: PMC10989928, “Cell division factor ZapE regulates Pseudomonas aeruginosa biofilm formation by impacting the pqs quorum sensing system” (mLife, 2023)

Molecular target: T1, MBP-PqsH, recombinant (P. aeruginosa PAO1, UniProt Q9I0Q0 1-382)
T1 construct: also called PqsH protein; source: E. coli BL21 (DE3), pMAL-C5x, purified (Dextrin Beads 6FF, Mono Q ion exchange, Superdex 200 gel filtration)
T1 sequence: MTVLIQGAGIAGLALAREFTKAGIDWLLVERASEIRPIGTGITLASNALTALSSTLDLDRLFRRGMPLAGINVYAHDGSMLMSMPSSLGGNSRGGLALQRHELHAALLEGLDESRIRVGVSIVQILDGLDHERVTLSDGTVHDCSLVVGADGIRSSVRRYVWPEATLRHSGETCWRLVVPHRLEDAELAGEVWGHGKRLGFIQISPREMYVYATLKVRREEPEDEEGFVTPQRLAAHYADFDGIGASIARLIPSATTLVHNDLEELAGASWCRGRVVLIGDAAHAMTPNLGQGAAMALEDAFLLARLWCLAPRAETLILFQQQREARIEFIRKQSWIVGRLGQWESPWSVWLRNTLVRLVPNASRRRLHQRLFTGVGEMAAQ
Assay: SPR
Conditions: both partners purified

B1: HIS-ZapE, recombinant (natural protein, P. aeruginosa PAO1, UniProt Q9HVX7 1-364, looked up)
chain: MTPLERYQADLQRPDFFHDAAQANAVKHLQRLYDDLVAADHAKPGLFGKLLGRKSGGPVKGLYFWGGVGRGKTYLVDTFFESLPFEQKVRTHFHRFMKRVHEELKTLKGEKNPLTIIGKRFADEARVICFDEFFVSDITDAMILATLLEELFKNGVSLVATSNIVPDGLYKDGLQRARFLPAIALLKEHTEIVNVDSGVDYRLRALEQAELFHWPLSEQVEEEMARSFKALTPDCAKAQRDEALMIENREIRARLTCDDVAWFEFRELCDGPRSQNDYIELAKIFHAVLISNVEQMGVTKDDMARRFINLVDEFYDRSVKLIISAEVELKDLYSGGRLEFEFQRTLSRLLEMQSHEYLTRPHRP
notes: also called PA4438; ZapE protein; source: E. coli BL21 (DE3), pET28a, purified (Ni NTA beads, Mono Q ion exchange, Superdex 200 gel filtration)
B1: binds.
